These results are taken from patent US20250339569A1 (3B PHARMACEUTICALS, published 2025).

Starred links: 1 amine or outer side, 2 acyl side, 3 side chain; linkers in the order of their positions; H or OH if unused. Positions of bridges follow the written chain, without caps; N, C: chain ends. Non-standard residues stand in square brackets, D forms with d. Primed or numbered codes have the meaning given here. No end group written: not given here. *: point of attachment. Af3(Aytr) = 3-amino-L-phenylalanine, ring amine acylated with triazol-1-yl acetic acid bearing a 4-hydroxamic acid group, O=C(Cn1cc(C(=O)NO)nn1)Nc1cccc(C[C@H](N[*:1])C(=O)[*:2])c1; Aph(Hspy) = 4-amino-L-phenylalanine, ring amine acylated with 4-sulfamoyl-1H-pyrrole-2-carboxylic acid, NS(=O)(=O)c1c[nH]c(C(=O)Nc2ccc(C[C@H](N[*:1])C(=O)[*:2])cc2)c1; Aph(SaPr)″ = 4-amino-L-phenylalanine, ring amine acylated with 3-sulfamoylpropanoic acid, NS(=O)(=O)CCC(=O)Nc1ccc(C[C@H](N[*:1])C(=O)[*:2])cc1; Aph(SaPr) = 4-amino-L-phenylalanine, ring amine acylated by 3-sulfamoylpropanoic acid, NS(=O)(=O)CCC(=O)Nc1ccc(C[C@H](N[*:1])C(=O)[*:2])cc1; Af3(Cshx) = 3-amino-L-phenylalanine, ring amine acylated with 4-sulfamoylcyclohexane-1-carboxylic acid; Phe(3-NHCO(CH2)3SO2NH2) = N[C@@H](Cc1cccc(NC(=O)CCCS(N)(=O)=O)c1)C(=O)O; DOTA = O=C(O)CN1CCN(CC(=O)O)CCN(CC(=O)*)CCN(CC(=O)O)CC1; PPAc = 4-carboxymethyl piperazine linker; mXylylene = c1cc(C[*:1])cc(C[*:2])c1; Af3(Aype) = not defined here; Af3(Hytr) = not defined here; Aph(Aybu) = not defined here; PPAc″ = not defined here

To fix the notation:
B1: 3BP-4555 (peptide)
peptide: QCE[dP]D[Phe(3-NHCO(CH2)3SO2NH2)]LTWSC-NH2
modifications: linker 2-11 via mXylylene; not fully specified (N-terminus); also: Lu complexed in DOTA
notes: also called natLu-DPI-4452
B2: 3BP-4501 (peptide)
peptide: {DOTA}-QCE[dP]D[Aph(SaPr)]LTWSC-NH2
modifications: linker 2-11 via mXylylene
SMILES: CC(C)C[C@@H]1NC(=O)[C@H](Cc2ccc(NC(=O)CCS(N)(=O)=O)cc2)NC(=O)[C@H](CC(=O)O)NC(=O)[C@H]2CCCN2C(=O)[C@H](CCC(=O)O)NC(=O)[C@@H](NC(=O)[C@H](CCC(N)=O)NC(=O)CN2CCN(CC(=O)O)CCN(CC(=O)O)CCN(CC(=O)O)CC2)CSCc2cccc(c2)CSC[C@@H](C(N)=O)NC(=O)[C@H](CO)NC(=O)[C@H](Cc2c[nH]c3ccccc23)NC(=O)[C@H]([C@@H](C)O)NC1=O
notes: also called DPI-4501

T1 sequence (O43570 25-301 limits assumed): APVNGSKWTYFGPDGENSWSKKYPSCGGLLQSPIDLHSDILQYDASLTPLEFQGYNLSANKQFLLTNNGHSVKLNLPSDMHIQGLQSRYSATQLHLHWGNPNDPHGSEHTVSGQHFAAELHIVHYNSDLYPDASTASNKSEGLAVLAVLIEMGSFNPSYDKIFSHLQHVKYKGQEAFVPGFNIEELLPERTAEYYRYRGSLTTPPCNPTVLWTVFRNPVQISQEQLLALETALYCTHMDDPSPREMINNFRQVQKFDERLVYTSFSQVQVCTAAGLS
T3 sequence (P22748 19-283 limits assumed): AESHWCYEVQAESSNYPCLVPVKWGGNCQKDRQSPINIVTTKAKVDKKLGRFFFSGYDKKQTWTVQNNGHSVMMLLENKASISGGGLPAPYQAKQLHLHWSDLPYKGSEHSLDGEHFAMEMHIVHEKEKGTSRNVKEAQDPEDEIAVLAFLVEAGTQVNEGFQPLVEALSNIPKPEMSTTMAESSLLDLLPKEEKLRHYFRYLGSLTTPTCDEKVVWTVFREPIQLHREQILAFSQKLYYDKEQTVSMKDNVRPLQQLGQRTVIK

The target in one assay is human carbonic anhydrase IX (CAIX) (human, UniProt Q16790 38-459). Description: FACS competition, HT-29 cells, tracer 3BP-2776; pIC50 category C: 6.1-7.0. How it is done: CAIX-expressing human HT-29 colorectal cancer cells (DSMZ, RRID: CVCL_0320) were cultured in McCoys's 5A modified medium (Biochrom, #F1015) including 10% fetal calf serum (FCS), 2 mM L-glutamine, 100 U/ml penicillin and 100 μg/mL streptomycin. Cells were detached with Accutase (Biolegend, #423201) and washed in FACS buffer (PBS including 1% FCS). Cells were diluted in FACS buffer to a final concentration of 500.000 cells per ml. 200 μL of the cell suspension were transferred to a u-shaped non-binding 96-well plate (Greiner) and cells were washed in ice-cold FACS buffer.
When biotinylated compounds were used an additional incubation step with 1 μg/mL APC-Streptavidin (Miltenyi; #130-106-791) in 50 μL FACS buffer for 30 minutes on ice was performed.
Cells were washed twice with ice-cold FACS buffer and analyzed in an Attune NxT flow cytometer (Thermo Fisher). Median fluorescence intensities (MFI) of the APC/Cy5-channel were calculated by Attune NxT software.
Regarding {DOTA-PPAc}-QCE[dP]D[Af3(Cshx)]LTWSC-NH2 (linker 2-11 via mXylylene) [3BP-4787], the pIC50 lay in the range of 6.1 to 7 pic50.

As to {DOTA-PPAc}-QCE[dP]D[Af3(Hytr)]LTWSC-NH2 (linker 2-11 via mXylylene; reading uncertain) [3BP-4882], the pIC50 is 6.1 to 7 pic50.

For the molecule {DOTA-PPAc}-QCE[dP]D[Aph(Aybu)]LTWSC-NH2 (linker 2-11 via mXylylene; reading uncertain) [3BP-4884], the pIC50 was 6.1 to 7 pic50.

{DOTA-PPAc}-QCE[dP]D[Aph(Hspy)]LTWSC-NH2 (linker 2-11 via mXylylene) [3BP-4814] yielded a pIC50 of 6.1 to 7 pic50.

Molecule {DOTA-PPAc}-QCE[dP]D[Af3(Aype)]LTWSC-NH2 (linker 2-11 via mXylylene; reading uncertain) [3BP-4886] yielded a pIC50 of 6.1 to 7 pic50.

On to {DOTA-PPAc}-QCE[dP]D[Af3(Aytr)]LTWSC-NH2 (linker 2-11 via mXylylene) [3BP-4847], for which the pIC50 fell in the range of 6.1 to 7 pic50.

Another assay has as its target T1, human carbonic anhydrase XII (CAXII), biotinylated (human, UniProt O43570 25-301, biotinylated).
T1 construct: Bought (SinoBiological Cat #10617-H08H); also called hCAXII-bio
The assay can be described thus: SPR, biotinylated CAXII captured (Biotin CAPture). The source says: (§1) For each test compound, SPR raw data in the form of resonance units (RU) were plotted as sensorgrams using the Biacore™ T200 control software. The signal from the blank sensorgram was subtracted from that of the test compound sensorgram (blank corrected). The blank corrected sensorgram was corrected for baseline drift by subtracting the sensorgram of a SCK run without the test compound (running buffer only). […] Raw data and fit results were imported as text files in IDBS. The pKD value (negative decadic logarithm of dissociation constant) was calculated in the IDBS excel template.
Background: In SPR one partner is held on a chip, and binding of the other changes the refractive index at the surface.
Take {DOTA}-QCE[dP]D[Aph(SaPr)″]LTWSC-NH2 (linker 2-11 via mXylylene; also: Lu complexed in DOTA, also called natLu-3BP-4501) [3BP-4581]: the pKD is less than 6 pkd.

In turn, B1 returned a pKD of less than 6 pkd.

Molecule B2 returned a pKD of less than 6 pkd.

In turn, {DOTA-PPAc″}-QCE[dP]D[Phe(3-NHCO(CH2)3SO2NH2)]LTWSC-NH2 (linker 2-11 via mXylylene; reading uncertain, also called DPI-4452) [3BP-4452] showed a pKD of less than 6 pkd.

The next assay addresses Fc-fusion protein of human carbonic anhydrase IX (human, UniProt Q16790 38-414). Description: SPR, captured hCAIX-Fc; t1/2 category A: >15.0 min.
{DOTA}-QCE[dP]D[Aph(SaPr)″]LTWSC-NH2 (linker 2-11 via mXylylene; also: Lu complexed in DOTA, also called natLu-3BP-4501) [3BP-4581]: the “t1/2 (half-life of the complex, SPR)” value was greater than 15 min.

Consider B1, for which the “t1/2 (half-life of the complex, SPR)” value was greater than 15 min.

As to B2, the “t1/2 (half-life of the complex, SPR)” value is greater than 15 min.

As to {DOTA-PPAc″}-QCE[dP]D[Phe(3-NHCO(CH2)3SO2NH2)]LTWSC-NH2 (linker 2-11 via mXylylene; reading uncertain, also called DPI-4452) [3BP-4452], the “t1/2 (half-life of the complex, SPR)” value was greater than 15 min.

The target of the next assay is T2, human carbonic anhydrase XIV (CAXIV), biotinylated (human, UniProt Q9ULX7 16-290, biotinylated).
T2 construct: Bought (SinoBiological Cat #10458-H08H); also called hCAXIV-bio
T2 sequence (Q9ULX7 16-290 limits assumed): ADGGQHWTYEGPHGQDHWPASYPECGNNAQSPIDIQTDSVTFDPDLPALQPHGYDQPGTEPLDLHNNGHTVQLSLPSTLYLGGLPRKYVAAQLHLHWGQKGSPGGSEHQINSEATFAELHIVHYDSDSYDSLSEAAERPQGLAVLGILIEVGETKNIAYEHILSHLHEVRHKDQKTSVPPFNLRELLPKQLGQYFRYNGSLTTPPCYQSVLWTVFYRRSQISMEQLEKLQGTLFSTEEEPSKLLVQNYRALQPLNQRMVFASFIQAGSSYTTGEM
The assay can be described thus: SPR, biotinylated CAXIV captured (Biotin CAPture).
From the text: as §1
{DOTA}-QCE[dP]D[Aph(SaPr)″]LTWSC-NH2 (linker 2-11 via mXylylene; also: Lu complexed in DOTA, also called natLu-3BP-4501) [3BP-4581] showed a pKD of less than 6 pkd.

As to B1, the pKD was less than 6 pkd.

Take B2: the pKD is less than 6 pkd.

With {DOTA-PPAc″}-QCE[dP]D[Phe(3-NHCO(CH2)3SO2NH2)]LTWSC-NH2 (linker 2-11 via mXylylene; reading uncertain, also called DPI-4452) [3BP-4452], the pKD was less than 6 pkd.

Another assay concerns the target T3, human carbonic anhydrase IV (CAIV), biotinylated (human, UniProt P22748 19-283, limits assumed, biotinylated).
T3 construct: Bought (SinoBiological, Cat # printed 10472-1H081H); also called hCAIV-bio
The assay can be described thus: SPR, biotinylated CAIV captured (Biotin CAPture).
From the text: as §1
Turning to {DOTA}-QCE[dP]D[Aph(SaPr)″]LTWSC-NH2 (linker 2-11 via mXylylene; also: Lu complexed in DOTA, also called natLu-3BP-4501) [3BP-4581], the pKD is less than 6 pkd.

Consider B1, for which the pKD is less than 6 pkd.

B2 gave a pKD of less than 6 pkd.

Take {DOTA-PPAc″}-QCE[dP]D[Phe(3-NHCO(CH2)3SO2NH2)]LTWSC-NH2 (linker 2-11 via mXylylene; reading uncertain, also called DPI-4452) [3BP-4452]: the pKD is less than 6 pkd.
